Drawing on publication PMC7344267, this text covers normalized collision energy for 50% signal decay of the complex and stoichiometry N for one molecule.

This assay concerns the target T1, Nt^17 peptide, the seventeen-residue N-terminal region of huntingtin (htt).
T1 chain: MATLEKLMKAFESLKSF
Briefly: native MS. Particulars: remark: other sources report otherwise.

B1: Nt^17 peptide, the seventeen-residue N-terminal region of huntingtin (htt) (peptide)
peptide: MATLEKLMKAFESLKSF
Consider B1, for which the normalized collision energy for 50% signal decay of the complex was 20 NCE and the stoichiometry N (in general, a count of units in the complex or per binding partner) was determined as 4.
